Measurements reported in US20090252741A1.

Biological target: human CTLA-4Ig fusion protein (extracellular domain of human CTLA-4 and the Fc fragment of human IgG1) (human) (UniProt P16410)
Assay: Biacore SPR, huCTLA-4Ig immobilized by amine coupling, mAb injected, 25 C

UniProt P16410, sequence (P16410 36-161): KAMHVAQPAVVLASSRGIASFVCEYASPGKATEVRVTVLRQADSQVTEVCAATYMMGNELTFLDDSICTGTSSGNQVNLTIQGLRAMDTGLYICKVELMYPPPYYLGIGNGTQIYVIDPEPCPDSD

- Kd: 3.06 nM
- koff: 0.000633 s⁻¹
- kon: 207000 M⁻¹ s⁻¹
B1: anti-human CTLA-4 mAb clone L3D10 (antibody, from another filing, V domains shown)
VH: QVQLKESGPGLVAPSQSLSITCTVSGFSLTSYGLSWVRQPPGKGLEWLGVIWYDGNTNFHSALISRLTISKDNSKSQVFLELNSLQTDDTATYYCAKTEGHYYGSNYGYYALDYWGQGTSVTVSS
VL: DIQMTQSPASLSVSVGETVTITCRASENIYSNLAWYQQKQGKSPQLLVYAATNLADGVPSRFSGSGSGTQYSLKINSLQSEDFGTYFCQHLWGTPYTFGGGTKLEIKR
